Measurements taken from publication PMC7215387, “Comparison of Target Recognition by TRAF1 and TRAF2” (International Journal of Molecular Sciences, 2020).

What was measured:
TRAF2 [1] = target: T1, TRAF2 (Homo sapiens, UniProt Q12933); experiment: Complex formation assay by gel-filtration (size-exclusion) chromatography with TRAF2; type: binding; details: Superdex 200 10/30, 20 mM Tris pH 8.0, 150 mM NaCl; 1 h at 4 °C; peak around 14 mL
T1 construct: TRAF2 TRAF domain (amino acid residues 305-501); 6xHis (C); made in house; host or cells: E. coli BL21 (DE3)
T1 sequence (Q12933 305-501): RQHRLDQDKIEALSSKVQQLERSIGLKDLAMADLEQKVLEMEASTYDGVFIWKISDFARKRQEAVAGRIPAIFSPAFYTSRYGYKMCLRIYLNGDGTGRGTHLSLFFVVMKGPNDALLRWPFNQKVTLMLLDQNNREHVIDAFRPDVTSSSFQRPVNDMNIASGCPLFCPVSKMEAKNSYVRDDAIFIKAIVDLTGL
Description: TRADD is a well-known regulator of the TRAF function. The death domain located at the C-terminus of TRADD interacts with death-domain containing receptors and adaptor proteins including TNFR, receptor interacting protein 1 (RIP1) and Fas-associated death domain protein (FADD), while the N-terminal domain of TRADD (TRADD-N) interacts with the TRAF domain of TRAF2 (Figure 2a). Although several indirect interactions between TRAF1 and TRADD have been described, a direct interaction and direct analyses between TRAF1 and TRADD have not been reported. To directly study their interactions and binding properties, which may provide important clues for understanding TRAF-mediated signaling by TRADD, TRAFs and TRADD-N were purified, and initial interaction testing was performed by Native-PAGE. […] Although TRAF1 did interact with TRADD-N, this interaction was not as tight as with TRAF2 (Figure 2b). To further confirm this association, the interaction between the TRAFs and TRADD-N was further tested by size-exclusion chromatography. […]
Purified TRAF domains and TRADD-N proteins were mixed, incubated at 4 °C for 1 h, and concentrated to 4 to 5 mg/mL using a protein concentration kit (Millipore). […] Complex assembly was evaluated based on the positions of eluted protein peaks monitored at 280 nm followed by SDS-PAGE.

TRAF2 [2] = target: T1, TRAF2; experiment: Surface plasmon resonance (SPR), TRAF2; type: binding; details: TRAF2 versus TRAF1
Procedure: The binding affinities between TRADD-N and TRAF1 or TRAF2 were further quantitatively analyzed using surface plasmon resonance (SPR) experiments (Figure 3a,b). For the SPR experiment, each purified 6xHis-tagged TRAF1 and TRAF2 was coupled to Ni-NTA sensor chips using a His-tag affinity system. Different concentrations of TRADD-N protein, from 0.39 to 3.125 μM, were analyzed for binding to TRAF1 or TRAF2. […] Given their interaction patterns and affinity differences in complex formation, we modeled the structure of the TRAF1:TRADD-N complex by docking TRADD-N to a previously solved TRAF1 structure based on the TRAF2:TRADD-N complex to better understand the affinity differences (Figure 3c,d). According to the previously determined structure of the TRAF2:TRADD-N complex, two distinct binding regions, Region I and II, were identified (Figure 3e). The specific residues from TRAF2 that contributed to the interaction in Region I were T401, H406, L471, and P474. The interaction-contributing residues on TRAF2 in Region II were D445, R448, P449, D450, S454 and G468. All residues in TRAF2 that participated in the interaction with TRADD-N were conserved in TRAF1, except for S454, which was replaced by alanine in TRAF1 (Figure 3f). The side chain of S454 in TRAF2 formed a stable hydrogen bond with the side chain of Q143 on TRADD-N and contributed to the stable interaction between these two proteins. […]

B1: TRADD-N: N-terminal domain of TRADD (TRADD-N, amino acid residues 1-163) (protein)
chain: MAAGQNGHEEWVGSAYLFVESSLDKVVLSDAYAHPQQKVAVYRALQAALAESGGSPDVLQMLKIHRSDPQLIVQLRFCGRQPCGRFLRAYREGALRAALQRSLAAALAQHSVPLQLELRAGAERLDALLADEERCLSCILAQQPDRLRDEELAELEDALRNLK
modifications: left off: His6 (from the vector pET24a), C-terminal, state not stated
co-migration with TRAF2 in size-exclusion chromatography / SDS-PAGE (TRAF2 [1]): co-migrated well with TRADD-N at similar intensities | affinity of TRAF2 for TRADD-N relative to that of TRAF1 (TRAF2 [2]): four times higher
